One may read the % Inhibition as how much of the control response was suppressed.

The source of these data is patent US20100015637A1 (AbbVie / Abbott, published 2010).

For experiment [1], the target named is human PlGF-1 comprising amino acids 1-137 produced in human embryonic kidney cells (human) (UniProt P49763). The experiment is described as follows: Format 2 …, capture MAb264, detection Pb264; sFlt-1 0 pmol/L (ratio 0).
Experiment [2] has the same target. The experiment is described as follows: Format 2 …, capture MAb264, detection Pb264; sFlt-1 3067 pmol/L (ratio 100).
Experiment [3] has the same target. The experiment in a line: Format 3 Quantikine ELISA, capture MAb264, detection Pb264; sFlt-1 3067 pmol/L (ratio 100). In general terms: In an ELISA, binding on a coated surface is turned into a signal by an enzyme label.
The target is the same in experiment [4]. The experiment in a line: Format 1 …, capture 2-826-335, detection 1-255-713; sFlt-1 77 pmol/L (ratio 2.5).
The target is the same in experiment [5]. The experiment in a line: Format 2 …, capture MAb264, detection Pb264; sFlt-1 9200 pmol/L (ratio 300).
Experiment [6] has the same target. The experiment is described as follows: Format 1 …, capture 2-826-335, detection 1-255-713; sFlt-1 1227 pmol/L (ratio 40).
The target is the same in experiment [7]. The experiment in a line: Format 3 Quantikine ELISA, capture MAb264, detection Pb264; sFlt-1 4600 pmol/L (ratio 150).
For experiment [8] the target is unchanged. The experiment is described as follows: Format 2 …, capture MAb264, detection Pb264; sFlt-1 153 pmol/L (ratio 5).
The target in experiment [9] is T1, CHO human PlGF-1 comprising amino acids 1-137 (human PlGF-1-His (1-131), CHO 6305) (human, UniProt P49763 19-221, N-glycans at N21 (completely glycosylated) and N89 (partially glycosylated)).
T1 construct: Mature human PlGF-1 with 6xHis tag (137 amino acids); also called CHO (1-137)
T1 sequence: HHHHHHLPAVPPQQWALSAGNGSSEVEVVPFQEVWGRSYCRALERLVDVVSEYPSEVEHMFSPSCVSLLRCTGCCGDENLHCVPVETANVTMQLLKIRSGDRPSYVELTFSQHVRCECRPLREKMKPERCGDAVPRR
The experiment is described as follows: … sandwich, capture MAb255, detection pAb264; antigen 250 pg/mL.

In experiment [10] the target is T2, CHO human PlGF-1 fragment (comprising amino acids 17-131; ATCC PTA-8540) (human, UniProt P49763 35-221).
T2 sequence: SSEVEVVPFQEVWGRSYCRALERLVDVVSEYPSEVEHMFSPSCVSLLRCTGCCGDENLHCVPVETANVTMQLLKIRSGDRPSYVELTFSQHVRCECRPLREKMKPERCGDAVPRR
The experiment is described as above.

Experiment [11] has as its target T3, human PlGF-1 fragment (comprising amino acids 17-131) produced in human embryonic kidney cells (human, UniProt P49763 35-221).
T3 sequence: T2 sequence
Described as above.

Experiment [12] concerns the target T4, human PlGF-1 comprising amino acids 1-137 produced in human embryonic kidney cells (human, UniProt P49763 19-221).
T4 construct: Mature human PlGF-1 with 6xHis tag; also called HEK (1-137); full length HEK human PlGF-1 (1-137)
T4 sequence: T1 sequence
Described as above.

Experiment [13] concerns the target recombinant human PlGF-1 (comprising amino acids 1-131) expressed in E. coli (R&D Systems) (human) (UniProt P49763). The experiment in a line: … sandwich, capture MAb255, detection pAb264; antigen 15 pg/mL.
Experiment [14] concerns the target T1, CHO human PlGF-1 comprising amino acids …. The experiment is described as follows: … sandwich, capture MAb255, detection MAb826; antigen 750 pg/mL. The method in brief: (§1)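 Human PlGF-1 antigen preparations, including recombinant forms expressed in CHO cells, were tested at 0 to 1500 pg/mL in a sandwich immunoassay. The capture antibody was a monoclonal anti-human PlGF-1 antibody immobilized on magnetic microparticles by passive coating and EDAC cross-linking. Detection used an acridinium ester-labeled monoclonal anti-human PlGF-1 antibody. Signal was recorded as chemiluminescent relative light units (RLU) at each antigen level.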

The target of experiment [15] is T2, CHO human PlGF-1 fragment (comprising …). The description is as above. The method in brief: as §1
In experiment [16] the target is T3, human PlGF-1 fragment (comprising amino …). The experiment is described as above. The method in brief: as §1
Experiment [17] concerns the target T4, human PlGF-1 comprising amino acids …. The experiment is described as above. The method in brief:
as §1

Experiment [18] has as its target recombinant human PlGF-1 (comprising amino acids 1-131) expressed in E. coli (R&D Systems) (human) (UniProt P49763). The experiment in a line: … sandwich, capture MAb255, detection pAb264; antigen 250 pg/mL.
The target of experiment [19] is T2, CHO human PlGF-1 fragment (comprising …). The experiment in a line: … sandwich, capture MAb255, detection pAb264; antigen 750 pg/mL.

In the case of “native sFlt-1, isolated from human placental tissue (from UniProt P17948 27-687) (receptor)”, the % Inhibition in experiment [1] was found to be 0%; in experiment [2] it was 95.7%; in [3], 80.9%; in experiment [4], 41.9%; in experiment [5], 97.5%; in [6], 91.9%. For the same molecule, the values for the % Inhibition in [7] and in [8] were 81.6% and 64.9%, respectively. The PlGF-1 Measured was found to be 786 pg/mL in experiment [1]; 33.8 pg/mL in experiment [2]; 166 pg/mL in experiment [3]; 594 pg/mL in experiment [4]; 20 pg/mL in experiment [5]; 83.2 pg/mL in experiment [6]. For the same molecule, the results for the PlGF-1 Measured in [7] and in experiment [8] were 159 pg/mL and 276 pg/mL, respectively.

B1: monoclonal antibody 1-255-713 (produced by murine hybridoma cell line 1-255-713, ATCC PTA-8536) (antibody, mouse IgG2a, V domains shown)
VH: QVHLQQSGAELMKPGASVKISCKATGYTFSSYWIEWVKQRPGHGLEWIGEILPGSVSNNFNEKFKDKATLTADPSSNTAYIQVSSLTSEDSAVYYCARSTGFYYGGNYFDHWGQGTTLAVSS
VL: DVVMTQTPLSLPVSPGDQASISCRSSQSLVHSNGHTYLHWYLQKPGQSPKLLIYKVSNRFSGVPDRVSGSGSGTDFTLKISRVEAEDLGVYFCSQSTHVPPTFGGGTKLEIKR
notes: also called MAb255
For the molecule B1, the RLU in experiment [9] was 226000 RLU; in [10], 283000 RLU; in experiment [11] it was 363000 RLU; in [12], 559000 RLU; in experiment [13] it was 47200 RLU; in [14], 400000 RLU. Besides, the RLU in [15] is 395000 RLU; in experiment [16], 576000 RLU; in experiment [17] it was 890000 RLU; in [18], 543000 RLU; in experiment [19], 713000 RLU.
